# In IntAct's records for PubMed 21063388:
# B1: Trinucleotide repeat-containing gene 6A protein (Homo sapiens), Q8NDV7 (parent)
# chain: MRELEAKATKDVERNLSRDLVQEEEQLMEEKKKKKDDKKKKEAAQKKATEQKIKVPEQIKPSVSQPQPANSNNGTSTATSTNNNAKRATANNQQPQQQQQQQQPQQQQPQQQPQPQPQQQQPQQQPQALPRYPREVPPRFRHQEHKQLLKRGQHFPVIAANLGSAVKVLNSQSESSALTNQQPQNNGEVQNSKNQSDINHSTSGSHYENSQRGPVSSTSDSSTNCKNAVVSDLSEKEAWPSAPGSDPELASECMDADSASSSESERNITIMASGNTGGEKDGLRNSTGLGSQNKFVVGSSSNNVGHGSSTGPWGFSHGAIISTCQVSVDAPESKSESSNNRMNAWGTVSSSSNGGLNPSTLNSASNHGAWPVLENNGLALKGPVGSGSSGINIQCSTIGQMPNNQSINSKVSGGSTHGTWGSLQETCESEVSGTQKVSFSGQPQNITTEMTGPNNTTNFMTSSLPNSGSVQNNELPSSNTGAWRVSTMNHPQMQAPSGMNGTSLSHLSNGESKSGGSYGTTWGAYGSNYSGDKCSGPNGQANGDTVNATLMQPGVNGPMGTNFQVNTNKGGGVWESGAANSQSTSWGSGNGANSGGSRRGWGTPAQNTGTNLPSVEWNKLPSNQHSNDSANGNGKTFTNGWKSTEEEDQGSATSQTNEQSSVWAKTGGTVESDGSTESTGRLEEKGTGESQSRDRRKIDQHTLLQSIVNRTDLDPRVLSNSGWGQTPIKQNTAWDTETSPRGERKTDNGTEAWGSSATQTFNSGACIDKTSPNGNDTSSVSGWGDPKPALRWGDSKGSNCQGGWEDDSAATGMVKSNQWGNCKEEKAAWNDSQKNKQGWGDGQKSSQGWSVSASDNWGETSRNNHWGEANKKSSSGGSDSDRSVSGWNELGKTSSFTWGNNINPNNSSGWDESSKPTPSQGWGDPPKSNQSLGWGDSSKPVSSPDWNKQQDIVGSWGIPPATGKPPGTGWLGGPIPAPAKEEEPTGWEEPSPESIRRKMEIDDGTSAWGDPSKYNYKNVNMWNKNVPNGNSRSDQQAQVHQLLTPASAISNKEASSGSGWGEPWGEPSTPATTVDNGTSAWGKPIDSGPSWGEPIAAASSTSTWGSSSVGPQALSKSGPKSMQDGWCGDDMPLPGNRPTGWEEEEDVEIGMWNSNSSQELNSSLNWPPYTKKMSSKGLSGKKRRRERGMMKGGNKQEEAWINPFVKQFSNISFSRDSPEENVQSNKMDLSGGMLQDKRMEIDKHSLNIGDYNRTVGKGPGSRPQISKESSMERNPYFDKDGIVADESQNMQFMSSQSMKLPPSNSALPNQALGSIAGLGMQNLNSVRQNGNPSMFGVGNTAAQPRGMQQPPAQPLSSSQPNLRAQVPPPLLSPQVPVSLLKYAPNNGGLNPLFGPQQVAMLNQLSQLNQLSQISQLQRLLAQQQRAQSQRSVPSGNRPQQDQQGRPLSVQQQMMQQSRQLDPNLLVKQQTPPSQQQPLHQPAMKSFLDNVMPHTTPELQKGPSPINAFSNFPIGLNSNLNVNMDMNSIKEPQSRLRKWTTVDSISVNTSLDQNSSKHGAISSGFRLEESPFVPYDFMNSSTSPASPPGSIGDGWPRAKSPNGSSSVNWPPEFRPGEPWKGYPNIDPETDPYVTPGSVINNLSINTVREVDHLRDRNSGSSSSLNTTLPSTSAWSSIRASNYNVPLSSTAQSTSARNSDSKLTWSPGSVTNTSLAHELWKVPLPPKNITAPSRPPPGLTGQKPPLSTWDNSPLRIGGGWGNSDARYTPGSSWGESSSGRITNWLVLKNLTPQIDGSTLRTLCMQHGPLITFHLNLPHGNALVRYSSKEEVVKAQKSLHMCVLGNTTILAEFASEEEISRFFAQSQSLTPSPGWQSLGSSQSRLGSLDCSHSFSSRTDLNHWNGAGLSGTNCGDLHGTSLWGTPHYSTSLWGPPSSSDPRGISSPSPINAFLSVDHLGGGGESM
# B2: Protein Gawky (Drosophila melanogaster (Fruit fly)), Q8SY33 (parent)
# chain: MREALFSQDGWGCQHVNQDTNWEVPSSPEPANKDAPGPPMWKPSINNGTDLWESNLRNGGQPAAQQVPKPSWGHTPSSNLGGTWGEDDDGADSSSVWTGGAVSNAGSGAAVGVNQAGVNVGPGGVVSSGGPQWGQGVVGVGLGSTGGNGSSNITGSSGVATGSSGNSSNAGNGWGDPREIRPLGVGGSMDIRNVEHRGGNGSGATSSDPRDIRMIDPRDPIRGDPRGISGRLNGTSEMWGHHPQMSHNQLQGINKMVGQSVATASTSVGTSGSGIGPGGPGPSTVSGNIPTQWGPAQPVSVGVSGPKDMSKQISGWEEPSPPPQRRSIPNYDDGTSLWGQQTRVPAASGHWKDMTDSIGRSSHLMRGQSQTGGIGIAGVGNSNVPVGANPSNPISSVVGPQARIPSVGGVQHKPDGGAMWVHSGNVGGRNNVAAVTTWGDDTHSVNVGAPSSGSVSSNNWVDDKSNSTLAQNSWSDPAPVGVSWGNKQSKPPSNSASSGWSTAAGVVDGVDLGSEWNTHGGIIGKSQQQQKLAGLNVGMVNVINAEIIKQSKQYRILVENGFKKEDVERALVIANMNIEEAADMLRANSSLSMDGWRRHDESLGSYADHNSSTSSGGFAGRYPVNSGQPSMSFPHNNLMNNMGGTAVTGGNNNTNMTALQVQKYLNQGQHGVAVGPQAVGNSSAVSVGFGQNTSNAAVAGAASVNIAANTNNQPSGQQIRMLGQQIQLAIHSGFISSQILTQPLTQTTLNLLNQLLSNIKHLQAAQQSLTRGGNVNPMAVNVAISKYKQQIQNLQNQINAQQAVYVKQQNMQPTSQQQQPQQQQLPSVHLSNSGNDYLRGHDAINNLQSNFSELNINKPSGYQGASNQQSRLNQWKLPVLDKEINSDSTEFSRAPGATKQNLTANTSNINSLGLQNDSTWSTGRSIGDGWPDPSSDNENKDWSVAQPTSAATAYTDLVQEFEPGKPWKGSQIKSIEDDPSITPGSVARSPLSINSTPKDADIFANTGKNSPTDLPPLSLSSSTWSFNPNQNYPSHSWSDNSQQCTATSELWTSPLNKSSSRGPPPGLTANSNKSANSNASTPTTITGGANGWLQPRSGGVQTTNTNWTGGNTTWGSSWLLLKNLTAQIDGPTLRTLCMQHGPLVSFHPYLNQGIALCKYTTREEANKAQMALNNCVLANTTIFAESPSENEVQSIMQHLPQTPSSTSSSGTSGGNVGGVGTSANNANSGSAACLSGNNSGNGNGSASGAGSGNNGNSSCNNSAAGGGSSSNNTITTVANSNLVGSSGSVSNSSGVTANSSTVSVVSCTASGNSINGAGTANSSGSKSSANNLASGQSSASNLTNSTNSTWRQTSQNQALQSQSRPSGREADFDYISLVYSIVDD
# B3: Trinucleotide repeat-containing gene 6C protein (Homo sapiens), Q9HCJ0-1 (parent)
# chain: MATGSAQGNFTGHTKKTNGNNGTNGALVQSPSNQSALGAGGANSNGSAARVWGVATGSSSGLAHCSVSGGDGKMDTMIGDGRSQNCWGASNSNAGINLNLNPNANPAAWPVLGHEGTVATGNPSSICSPVSAIGQNMGNQNGNPTGTLGAWGNLLPQESTEPQTSTSQNVSFSAQPQNLNTDGPNNTNPMNSSPNPINAMQTNGLPNWGMAVGMGAIIPPHLQGLPGANGSSVSQVSGGSAEGISNSVWGLSPGNPATGNSNSGFSQGNGDTVNSALSAKQNGSSSAVQKEGSGGNAWDSGPPAGPGILAWGRGSGNNGVGNIHSGAWGHPSRSTSNGVNGEWGKPPNQHSNSDINGKGSTGWESPSVTSQNPTVQPGGEHMNSWAKAASSGTTASEGSSDGSGNHNEGSTGREGTGEGRRRDKGIIDQGHIQLPRNDLDPRVLSNTGWGQTPVKQNTAWEFEESPRSERKNDNGTEAWGCAATQASNSGGKNDGSIMNSTNTSSVSGWVNAPPAAVPANTGWGDSNNKAPSGPGVWGDSISSTAVSTAAAAKSGHAWSGAANQEDKSPTWGEPPKPKSQHWGDGQRSNPAWSAGGGDWADSSSVLGHLGDGKKNGSGWDADSNRSGSGWNDTTRSGNSGWGNSTNTKANPGTNWGETLKPGPQQNWASKPQDNNVSNWGGAASVKQTGTGWIGGPVPVKQKDSSEATGWEEPSPPSIRRKMEIDDGTSAWGDPSNYNNKTVNMWDRNNPVIQSSTTTNTTTTTTTTTSNTTHRVETPPPHQAGTQLNRSPLLGPGRKVSSGWGEMPNVHSKTENSWGEPSSPSTLVDNGTAAWGKPPSSGSGWGDHPAEPPVAFGRAGAPVAASALCKPASKSMQEGWGSGGDEMNLSTSQWEDEEGDVWNNAASQESTSSCSSWGNAPKKGLQKGMKTSGKQDEAWIMSRLIKQLTDMGFPREPAEEALKSNNMNLDQAMSALLEKKVDVDKRGLGVTDHNGMAAKPLGCRPPISKESSVDRPTFLDKDGGLVEEPTPSPFLPSPSLKLPLSHSALPSQALGGIASGLGMQNLNSSRQIPSGNLGMFGNSGAAQARTMQQPPQPPVQPLNSSQPSLRAQVPQFLSPQVQAQLLQFAAKNIGLNPALLTSPINPQHMTMLNQLYQLQLAYQRLQIQQQMLQAQRNVSGSMRQQEQQVARTITNLQQQIQQHQRQLAQALLVKQPPPPPPPPHLSLHPSAGKSAMDSFPSHPQTPGLPDLQTKEQQSSPNTFAPYPLAGLNPNMNVNSMDMTGGLSVKDPSQSQSRLPQWTHPNSMDNLPSAASPLEQNPSKHGAIPGGLSIGPPGKSSIDDSYGRYDLIQNSESPASPPVAVPHSWSRAKSDSDKISNGSSINWPPEFHPGVPWKGLQNIDPENDPDVTPGSVPTGPTINTTIQDVNRYLLKSGGKLSDIKSTWSSGPTSHTQASLSHELWKVPRNSTAPTRPPPGLTNPKPSSTWGASPLGWTSSYSSGSAWSTDTSGRTSSWLVLRNLTPQIDGSTLRTLCLQHGPLITFHLNLTQGNAVVRYSSKEEAAKAQKSLHMCVLGNTTILAEFAGEEEVNRFLAQGQALPPTSSWQSSSASSQPRLSAAGSSHGLVRSDAGHWNAPCLGGKGSSELLWGGVPQYSSSLWGPPSADDSRVIGSPTPLTTLLPGDLLSGESL
# Variants of: B1
# Settings: with pabp_drome pAbp
row,Variant,effect of a mutation on the interaction
1,F1612A,disrupting interaction

# Variants of: B1
# Settings: with pabp1_human PABPC1, P11940
# Target sequence in this assay (P11940 whole entry): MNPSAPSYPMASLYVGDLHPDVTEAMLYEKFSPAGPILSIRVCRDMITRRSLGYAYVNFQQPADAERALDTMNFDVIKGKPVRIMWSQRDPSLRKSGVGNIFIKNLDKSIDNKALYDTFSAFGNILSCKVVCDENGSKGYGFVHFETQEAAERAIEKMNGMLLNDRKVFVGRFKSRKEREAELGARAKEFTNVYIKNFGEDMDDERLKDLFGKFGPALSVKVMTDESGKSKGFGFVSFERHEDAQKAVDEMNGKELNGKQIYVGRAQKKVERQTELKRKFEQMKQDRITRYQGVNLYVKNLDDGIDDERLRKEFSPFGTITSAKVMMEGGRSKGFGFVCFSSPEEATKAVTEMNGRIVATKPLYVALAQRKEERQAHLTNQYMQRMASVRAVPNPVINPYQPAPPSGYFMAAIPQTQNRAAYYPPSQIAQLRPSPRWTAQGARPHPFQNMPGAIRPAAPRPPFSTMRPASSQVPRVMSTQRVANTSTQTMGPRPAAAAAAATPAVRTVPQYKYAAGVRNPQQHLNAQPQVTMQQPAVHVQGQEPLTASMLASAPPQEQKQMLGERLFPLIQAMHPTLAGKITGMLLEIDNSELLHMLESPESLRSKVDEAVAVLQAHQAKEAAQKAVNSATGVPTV
row,Variant,effect of a mutation on the interaction
1,F1612A,disrupting interaction

# Variants of: B2
# Settings: with pabp_drome pAbp
# Target sequence in this assay (P21187 whole entry): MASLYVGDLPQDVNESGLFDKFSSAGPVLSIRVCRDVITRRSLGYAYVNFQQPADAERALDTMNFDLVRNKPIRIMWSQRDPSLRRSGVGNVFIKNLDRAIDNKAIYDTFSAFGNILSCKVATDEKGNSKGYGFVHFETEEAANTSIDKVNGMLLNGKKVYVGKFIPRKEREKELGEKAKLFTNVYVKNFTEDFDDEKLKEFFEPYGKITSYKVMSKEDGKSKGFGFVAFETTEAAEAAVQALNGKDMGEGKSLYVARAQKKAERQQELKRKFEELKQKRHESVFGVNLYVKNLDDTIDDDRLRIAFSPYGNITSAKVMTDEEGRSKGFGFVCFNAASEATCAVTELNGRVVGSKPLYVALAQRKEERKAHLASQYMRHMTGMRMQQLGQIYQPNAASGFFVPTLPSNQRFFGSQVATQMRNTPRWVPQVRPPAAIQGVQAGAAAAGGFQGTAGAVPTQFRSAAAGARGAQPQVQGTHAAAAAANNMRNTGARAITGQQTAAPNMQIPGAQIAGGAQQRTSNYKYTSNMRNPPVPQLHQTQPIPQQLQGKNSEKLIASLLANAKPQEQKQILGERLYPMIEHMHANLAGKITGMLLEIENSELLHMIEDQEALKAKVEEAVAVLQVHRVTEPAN
row,Variant,effect of a mutation on the interaction
1,V958P,increasing interaction
2,Q959P,increasing interaction

# Variants of: B2
# Settings: with pabp_drome pAbp
# Remark: another data set of the same source
# Target sequence in this assay (P21187 whole entry): as above
row,Variant,effect of a mutation on the interaction
1,E962Q,increasing interaction

# Variants of: B2
# Settings: with pabp_drome pAbp
# Remark: another data set of the same source
# Target sequence in this assay (P21187 whole entry): as above
row,Variant,effect of a mutation on the interaction
1,F961A,disrupting interaction

# Variants of: B3
# Settings: with pabp_drome pAbp
# Target sequence in this assay (P21187 whole entry): as above
row,Variant,effect of a mutation on the interaction
1,F1389A,disrupting interaction

# Variants of: B3
# Settings: with pabp1_human PABPC1, P11940
# Target sequence in this assay (P11940 whole entry): as the sequence (P11940 whole entry) above
row,Variant,effect of a mutation on the interaction
1,F1389A,disrupting interaction
